# The supplement of paper PMC9112550, “Optimization of the antimicrobial peptide Bac7 by deep mutational scanning” (BMC Biology, 2022)
# System: Escherichia coli TOP10
# Experiment: shrunken log2 fold change of peptide-encoding DNA abundance (4.5 h post-induction vs induction); higher = less antimicrobial activity (less host growth inhibition)
# Details: time post-induction: 4.5 h; library: site-saturation at positions 5, 18, 19, 20
# 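Further: peptides expressed intracellularly from a pBAD plasmid library in pooled LB shake-flask culture, induced with 0.3% L-arabinose, DNA abundance read by NGS, three biological replicates, DESeq2 with apeglm shrinkage.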
row,Sequence,shrunken log2 fold change
1,RRIRNRPPRLPRPRPRPALKPRP,0.108
2,RRIRVRPPRLPRPRPRPDVKPRP,-0.0375
3,RRIRPRPPRLPRPRPRPIGGPRP,0.00483
4,RRIRIRPPRLPRPRPRPNDHPRP,-0.569
5,RRIRCRPPRLPRPRPRPNPPPRP,0.557
6,RRIRSRPPRLPRPRPRPQHTPRP,-0.424
7,RRIRIRPPRLPRPRPRPPLKPRP,-0.105
8,RRIRQRPPRLPRPRPRPEPWPRP,0.153
9,RRIRQRPPRLPRPRPRPSVHPRP,-0.276
10,RRIRTRPPRLPRPRPRPWSNPRP,0.0394
11,RRIRCRPPRLPRPRPRPSQLPRP,-0.357
12,RRIRGRPPRLPRPRPRPSCFPRP,0.504
13,RRIRMRPPRLPRPRPRPNNEPRP,-0.0748
14,RRIRRRPPRLPRPRPRPANMPRP,-0.0342
15,RRIRIRPPRLPRPRPRPHENPRP,-0.581
16,RRIRVRPPRLPRPRPRPTQMPRP,0.19
17,RRIRVRPPRLPRPRPRPVIDPRP,0.0104
18,RRIRYRPPRLPRPRPRPKYCPRP,0.0325
19,RRIRPRPPRLPRPRPRPRRSPRP,0.124
20,RRIRSRPPRLPRPRPRPGVFPRP,0.146
21,RRIRVRPPRLPRPRPRPRPDPRP,0.216
22,RRIRDRPPRLPRPRPRPAYSPRP,0.0295
23,RRIRFRPPRLPRPRPRPKILPRP,0.205
24,RRIRQRPPRLPRPRPRPYPMPRP,0.0253
25,RRIRRRPPRLPRPRPRPVYHPRP,-0.0449

row,Sequence,shrunken log2 fold change
1,RRIRIRPPRLPRPRPRPSMSPRP,-0.6
2,RRIRIRPPRLPRPRPRPYRYPRP,-0.127
3,RRIRTRPPRLPRPRPRPHLEPRP,-0.0891
4,RRIRIRPPRLPRPRPRPHWQPRP,1.4
5,RRIRRRPPRLPRPRPRPSNHPRP,-0.396
6,RRIRARPPRLPRPRPRPHANPRP,-0.0153
7,RRIRSRPPRLPRPRPRPVYCPRP,-0.138
8,RRIRHRPPRLPRPRPRPQYEPRP,-0.0461
9,RRIRVRPPRLPRPRPRPTGIPRP,-0.115
10,RRIRLRPPRLPRPRPRPFELPRP,-0.519
11,RRIRYRPPRLPRPRPRPVLEPRP,-0.0835
12,RRIRGRPPRLPRPRPRPYFIPRP,-0.336
13,RRIRKRPPRLPRPRPRPAHDPRP,0.536
14,RRIRDRPPRLPRPRPRPGTQPRP,0.00934
15,RRIRNRPPRLPRPRPRPDPKPRP,-0.00647
16,RRIRMRPPRLPRPRPRPIRTPRP,-0.0696
17,RRIRFRPPRLPRPRPRPNEVPRP,-0.0205
18,RRIRDRPPRLPRPRPRPDIDPRP,-0.012
19,RRIRYRPPRLPRPRPRPICIPRP,-0.08
20,RRIRGRPPRLPRPRPRPSVKPRP,0.293
21,RRIRSRPPRLPRPRPRPVKRPRP,0.26
22,RRIRKRPPRLPRPRPRPYANPRP,-0.091
23,RRIRMRPPRLPRPRPRPCCHPRP,0.0146
24,RRIRVRPPRLPRPRPRPHLAPRP,0.101
25,RRIRDRPPRLPRPRPRPANWPRP,0.239

row,Sequence,shrunken log2 fold change
1,RRIRERPPRLPRPRPRPPRWPRP,0.508
2,RRIRRRPPRLPRPRPRPQGDPRP,0.0133
3,RRIRLRPPRLPRPRPRPCWKPRP,0.00126
4,RRIRVRPPRLPRPRPRPWLQPRP,-0.0274
5,RRIRMRPPRLPRPRPRPDFHPRP,-0.129
6,RRIRNRPPRLPRPRPRPGKDPRP,-0.0565
7,RRIRIRPPRLPRPRPRPDANPRP,0.219
8,RRIRCRPPRLPRPRPRPTRHPRP,0.161
9,RRIRPRPPRLPRPRPRPHQPPRP,-0.129
10,RRIRERPPRLPRPRPRPECTPRP,0.187
11,RRIRARPPRLPRPRPRPHYKPRP,-0.424
12,RRIRERPPRLPRPRPRPSWCPRP,-0.0728
13,RRIRSRPPRLPRPRPRPELCPRP,-0.0749
14,RRIRHRPPRLPRPRPRPFSIPRP,-0.392
15,RRIRNRPPRLPRPRPRPSFEPRP,-0.0494
16,RRIRQRPPRLPRPRPRPDGEPRP,0.117
17,RRIRMRPPRLPRPRPRPIIGPRP,-0.00776
18,RRIRGRPPRLPRPRPRPHTSPRP,-0.00444
19,RRIRLRPPRLPRPRPRPCMLPRP,-0.398
20,RRIRERPPRLPRPRPRPWKAPRP,0.0158
21,RRIRARPPRLPRPRPRPEKRPRP,0.128
22,RRIRTRPPRLPRPRPRPTQIPRP,0.0112
23,RRIRYRPPRLPRPRPRPYEEPRP,-0.0354
24,RRIRSRPPRLPRPRPRPGCGPRP,0.62
25,RRIRCRPPRLPRPRPRPAMCPRP,-0.144
